# Data taken from article PMC4049228 (Science (New York, N.Y.), 2014).
# T1: Ricinus communis ATXR5 (RcATXR5 a.a. 158–374; nSET and SET domain) (Ricinus communis, UniProt B9RU15 158-374)
# T1 sequence: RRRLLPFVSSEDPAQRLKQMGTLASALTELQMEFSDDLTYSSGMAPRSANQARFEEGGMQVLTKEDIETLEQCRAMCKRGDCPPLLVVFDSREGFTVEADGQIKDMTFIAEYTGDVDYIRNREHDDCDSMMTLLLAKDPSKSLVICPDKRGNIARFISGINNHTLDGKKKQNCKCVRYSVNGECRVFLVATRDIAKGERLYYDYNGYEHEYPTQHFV
# Biological target: T1, Ricinus communis ATXR5 (RcATXR5 a.a. …)
# Assay: crystal structure
binder,measurement,value
KQLATKAARKSAPATGGVK [histone H3.1 peptide (a.a. 18–36)],binding result,binds
